US6558913

Target: factor Xa-activated factor V(Q506) (UniProt P12259)
UniProt P12259, sequence (P12259 29-737 R534Q, chain 1 of 2): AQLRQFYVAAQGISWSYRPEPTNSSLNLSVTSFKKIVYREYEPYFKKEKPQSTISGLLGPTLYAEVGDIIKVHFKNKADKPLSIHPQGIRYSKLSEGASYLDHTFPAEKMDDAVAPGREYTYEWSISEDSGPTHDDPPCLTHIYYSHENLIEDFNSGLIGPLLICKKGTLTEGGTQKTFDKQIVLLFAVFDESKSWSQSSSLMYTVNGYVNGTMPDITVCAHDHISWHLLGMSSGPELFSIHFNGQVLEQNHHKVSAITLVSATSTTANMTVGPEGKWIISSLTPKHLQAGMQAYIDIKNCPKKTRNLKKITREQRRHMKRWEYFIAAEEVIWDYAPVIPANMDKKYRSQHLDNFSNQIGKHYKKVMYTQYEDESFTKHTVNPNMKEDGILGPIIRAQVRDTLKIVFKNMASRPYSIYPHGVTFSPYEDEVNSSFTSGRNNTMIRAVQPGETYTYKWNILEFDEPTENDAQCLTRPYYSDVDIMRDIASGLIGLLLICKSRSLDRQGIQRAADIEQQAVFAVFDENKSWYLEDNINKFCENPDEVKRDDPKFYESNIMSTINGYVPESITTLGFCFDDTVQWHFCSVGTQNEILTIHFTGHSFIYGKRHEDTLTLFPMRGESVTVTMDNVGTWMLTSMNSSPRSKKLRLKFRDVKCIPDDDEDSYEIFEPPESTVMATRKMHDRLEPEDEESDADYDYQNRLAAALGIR
UniProt P12259, sequence (P12259 1047-2224, chain 2 of 2): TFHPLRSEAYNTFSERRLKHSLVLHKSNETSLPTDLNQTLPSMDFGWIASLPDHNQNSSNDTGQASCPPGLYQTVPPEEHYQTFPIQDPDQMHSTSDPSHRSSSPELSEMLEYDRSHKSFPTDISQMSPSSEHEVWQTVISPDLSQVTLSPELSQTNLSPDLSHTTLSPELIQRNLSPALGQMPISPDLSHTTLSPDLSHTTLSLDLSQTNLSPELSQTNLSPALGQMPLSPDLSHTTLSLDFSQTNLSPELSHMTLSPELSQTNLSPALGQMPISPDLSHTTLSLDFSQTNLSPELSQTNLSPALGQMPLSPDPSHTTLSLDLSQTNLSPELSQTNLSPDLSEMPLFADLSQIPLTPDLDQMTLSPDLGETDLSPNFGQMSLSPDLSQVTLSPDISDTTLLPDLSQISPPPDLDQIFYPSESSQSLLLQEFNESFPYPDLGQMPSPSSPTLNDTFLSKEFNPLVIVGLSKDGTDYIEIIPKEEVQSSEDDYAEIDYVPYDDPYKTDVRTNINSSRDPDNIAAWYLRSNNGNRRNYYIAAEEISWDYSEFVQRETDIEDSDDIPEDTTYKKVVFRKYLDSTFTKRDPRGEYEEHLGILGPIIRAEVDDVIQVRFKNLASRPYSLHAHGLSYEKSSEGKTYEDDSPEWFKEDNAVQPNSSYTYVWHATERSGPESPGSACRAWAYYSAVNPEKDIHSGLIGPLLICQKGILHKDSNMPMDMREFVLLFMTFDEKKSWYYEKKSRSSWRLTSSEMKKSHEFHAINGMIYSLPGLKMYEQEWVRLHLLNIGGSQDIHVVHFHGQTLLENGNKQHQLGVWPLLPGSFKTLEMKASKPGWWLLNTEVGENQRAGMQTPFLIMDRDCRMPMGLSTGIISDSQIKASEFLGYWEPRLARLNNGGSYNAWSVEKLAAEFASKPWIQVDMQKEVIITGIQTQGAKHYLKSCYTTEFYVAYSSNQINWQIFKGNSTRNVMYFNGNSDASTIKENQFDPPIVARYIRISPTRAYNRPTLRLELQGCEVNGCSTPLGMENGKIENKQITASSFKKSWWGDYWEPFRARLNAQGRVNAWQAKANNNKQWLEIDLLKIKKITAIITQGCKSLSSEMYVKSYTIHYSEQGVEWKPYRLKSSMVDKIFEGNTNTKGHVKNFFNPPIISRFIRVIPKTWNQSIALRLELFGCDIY

In the case of activated protein C, the “factor Va activity over time after addition of APC (inactivation by APC)” value is reported as “the replacement of Arg-506 by Gln only prevents the inactivation of the Xa-activated form of factor V by APC (FIG. 8)”.
